This test deals with Vps24 (full-length, two-hybrid fusion) (A. nidulans). Nature of the test: two-hybrid.

Our source for the fold lower β-galactosidase activity than with DidB^Did2 and fold β-galactosidase activity with Vps24 over that with DidB values is publication PMC2640967.

On to Vps4 (two-hybrid fusion) (enzyme), for which the fold lower β-galactosidase activity than with DidB^Did2 was 30 fold.

B1: PalB-(1–130) prey (two-hybrid fusion) (domain or fragment)
chain: MSRTSSAPSQKSLISRALKAERDVITASSQSQALDAAIDAAEHYMKALALTSSSKDRNVLDAKCKEWLTRAEKIKGSEDWRSVAQSRRSRLRTPASTRKLTTREDIILLQGAKLNGFIFPPWKAEPSLTE
In the case of B1, the fold β-galactosidase activity with Vps24 over that with DidB was 10 fold.
